Reference: publication PMC8172861, “Structural and phylogenetic analyses of resistance to next-generation aminoglycosides conferred by AAC(2′) enzymes” (Scientific Reports, 2021)

Biological target: the molecule itself
Assay: crystal structure; crystals grown at 4 °C by sitting-drop vapour diffusion, 10 mg/mL AAC(2′)-Ia with 10 mM acetyl-CoA and 10 mM antibiotic (tobramycin, netilmicin or amikacin); two chains (A and B) in the models

B1: AAC(2′)-Ia from Providencia stuartii (enzyme)
chain: MGIEYRSLHTSQLTLSEKEALYDLLIEGFEGDFSHDDFAHTLGGMHVMAFDQQKLVGHVAIIQRHMALDNTPISVGYVEAMVVEQSYRRQGIGRQLMLQTNKIIASCYQLGLLSASDDGQKLYHSVGWQIWKGKLFELKQGSYIRSIEEEGGVMGWKADGEVDFTASLYCDFRGGDQW
notes: AAC(2′)-Ia, aminoglycoside 2′-N-acetyltransferase from Providencia stuartii; synthesized gene in pET-15b (NdeI/BamHI); Crystallised with acetyl-CoA or CoA and an aminoglycoside; also called aminoglycoside (2′)-N-acetyltransferase; source: E. coli BL21(DE3), purified (Ni-IDA-Sepharose, thrombin cleavage, benzamidine column, DEAE Sepharose); not shown: HIS-tag, N-terminal, cleaved
B1: binds.
